Laboratory results as given in patent publication US20150344570A1 (published 2015).

B1: GpH7-B3 variant Q295_14T/GpL16-k0 (antibody, human IgG1, kappa)
heavy: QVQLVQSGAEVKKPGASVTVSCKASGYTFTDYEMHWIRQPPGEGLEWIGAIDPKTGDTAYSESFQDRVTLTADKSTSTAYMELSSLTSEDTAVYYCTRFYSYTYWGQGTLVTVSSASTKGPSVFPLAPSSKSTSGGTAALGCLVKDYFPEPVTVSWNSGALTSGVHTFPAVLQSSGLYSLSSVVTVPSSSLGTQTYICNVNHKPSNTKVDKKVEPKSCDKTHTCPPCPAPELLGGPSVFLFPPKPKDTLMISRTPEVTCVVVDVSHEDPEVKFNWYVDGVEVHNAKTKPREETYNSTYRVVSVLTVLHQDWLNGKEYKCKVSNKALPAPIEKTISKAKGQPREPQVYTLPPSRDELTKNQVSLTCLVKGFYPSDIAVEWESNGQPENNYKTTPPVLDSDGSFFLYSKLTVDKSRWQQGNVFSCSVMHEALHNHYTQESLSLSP
light: DIVMTQSPLSLPVTPGEPASISCQASESLVHSNRNTYLHWYLQKPGQSPQLLIYKVSNRFSGVPDRFSGSGSGTDFTLKISRVEAEDVGVYYCSQNTHVPPTFGQGTKVEIERTVAAPSVFIFPPSDEQLKSGTASVVCLLNNFYPREAKVQWKVDNALQSGNSQESVTEQDSKDSTYSLSSTLTLSKADYEKHKVYACEVTHQGLSSPVTKSFNRGEC
notes: both H chains altered; also called Ho Ab Q295_14T
B2: GpH7-B3 variant I336_06M/GpL16-k0 (antibody, human IgG1, kappa)
heavy: not shown
light: B1 light
notes: both H chains altered; also called Ho Ab I336_06M
B3: GpH7-B3 variant S324_15Y/GpL16-k0 (antibody, human IgG1, kappa)
heavy: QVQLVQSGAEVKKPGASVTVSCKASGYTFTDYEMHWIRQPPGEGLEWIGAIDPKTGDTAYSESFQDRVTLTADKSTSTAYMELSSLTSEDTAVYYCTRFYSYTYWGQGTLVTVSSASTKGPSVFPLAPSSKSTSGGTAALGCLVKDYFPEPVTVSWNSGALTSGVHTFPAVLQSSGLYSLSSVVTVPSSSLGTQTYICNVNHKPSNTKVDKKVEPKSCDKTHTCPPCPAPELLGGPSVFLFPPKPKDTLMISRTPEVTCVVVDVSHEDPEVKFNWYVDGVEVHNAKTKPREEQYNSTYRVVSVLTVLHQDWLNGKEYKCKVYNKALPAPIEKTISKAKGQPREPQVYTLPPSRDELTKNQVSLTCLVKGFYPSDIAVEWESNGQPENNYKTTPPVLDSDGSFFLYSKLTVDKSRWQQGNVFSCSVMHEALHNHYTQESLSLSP
light: B1 light
notes: both H chains altered; also called Ho Ab S324_15Y
B4: GpH7-B3 variant S337_10E/GpL16-k0 (antibody, human IgG1, kappa)
heavy: not shown
light: B1 light
notes: both H chains altered; also called Ho Ab S337_10E
B5: GpH7-B3 variant E333_09D/GpL16-k0 (antibody, human IgG1, kappa)
heavy: not shown
light: B1 light
notes: both H chains altered; also called Ho Ab E333_09D
B6: GpH7-B3 variant P271_01G/GpL16-k0 (antibody, human IgG1, kappa)
heavy: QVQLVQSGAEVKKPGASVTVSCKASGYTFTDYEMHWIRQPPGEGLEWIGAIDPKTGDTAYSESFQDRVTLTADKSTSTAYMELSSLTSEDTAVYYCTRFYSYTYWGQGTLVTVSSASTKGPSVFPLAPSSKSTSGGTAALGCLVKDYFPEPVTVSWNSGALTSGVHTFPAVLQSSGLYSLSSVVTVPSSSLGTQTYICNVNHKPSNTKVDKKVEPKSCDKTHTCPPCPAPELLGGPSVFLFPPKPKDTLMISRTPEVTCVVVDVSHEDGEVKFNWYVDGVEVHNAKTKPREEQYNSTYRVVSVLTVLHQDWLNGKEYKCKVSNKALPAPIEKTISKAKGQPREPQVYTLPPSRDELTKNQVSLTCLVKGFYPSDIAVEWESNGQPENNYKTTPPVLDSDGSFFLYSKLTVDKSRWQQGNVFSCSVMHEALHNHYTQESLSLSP
light: B1 light
notes: both H chains altered; also called Ho Ab P271_01G
B7: GpH7-B3 variant L234_15Y/GpL16-k0 (antibody, human IgG1, kappa)
heavy: not shown
light: B1 light
notes: both H chains altered; also called Ho Ab L234_15Y
B8: GpH7-B3 variant S337_18N/GpL16-k0 (antibody, human IgG1, kappa)
heavy: not shown
light: B1 light
notes: both H chains altered; also called Ho Ab S337_18N
B9: GpH7-B3 variant S267_09D/GpL16-k0 (antibody, human IgG1, kappa)
heavy: not shown
light: B1 light
notes: both H chains altered; also called Ho Ab S267_09D
B10: GpH7-B3 variant S337_14T/GpL16-k0 (antibody, human IgG1, kappa)
heavy: not shown
light: B1 light
notes: both H chains altered; also called Ho Ab S337_14T
B11: GpH7-B3 variant S337_09D/GpL16-k0 (antibody, human IgG1, kappa)
heavy: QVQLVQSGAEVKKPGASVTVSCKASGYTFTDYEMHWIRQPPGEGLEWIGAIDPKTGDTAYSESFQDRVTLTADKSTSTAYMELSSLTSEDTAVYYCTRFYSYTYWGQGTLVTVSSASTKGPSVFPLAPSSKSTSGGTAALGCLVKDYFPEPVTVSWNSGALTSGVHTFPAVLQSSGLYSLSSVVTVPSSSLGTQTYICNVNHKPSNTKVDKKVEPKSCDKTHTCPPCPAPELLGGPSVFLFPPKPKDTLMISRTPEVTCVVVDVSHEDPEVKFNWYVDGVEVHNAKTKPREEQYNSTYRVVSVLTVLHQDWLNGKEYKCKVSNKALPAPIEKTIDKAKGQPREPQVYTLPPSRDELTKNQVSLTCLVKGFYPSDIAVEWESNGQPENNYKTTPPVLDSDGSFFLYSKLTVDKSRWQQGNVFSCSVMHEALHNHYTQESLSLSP
light: B1 light
notes: both H chains altered; also called Ho Ab S337_09D
B12: GpH7-B3 variant I336_03V/GpL16-k0 (antibody, human IgG1, kappa)
heavy: not shown
light: B1 light
notes: both H chains altered; also called Ho Ab I336_03V
B13: GpH7-B3 variant L234_09D/GpL16-k0 (antibody, human IgG1, kappa)
heavy: not shown
light: B1 light
notes: both H chains altered; also called Ho Ab L234_09D
B14: GpH7-B3 variant I332_01G/GpL16-k0 (antibody, human IgG1, kappa)
heavy: not shown
light: B1 light
notes: both H chains altered; also called Ho Ab I332_01G
B15: GpH7-B3 variant T335_16H/GpL16-k0 (antibody, human IgG1, kappa)
heavy: not shown
light: B1 light
notes: both H chains altered; also called Ho Ab T335_16H
B16: GpH7-B3 variant S337_04F/GpL16-k0 (antibody, human IgG1, kappa)
heavy: not shown
light: B1 light
notes: both H chains altered; also called Ho Ab S337_04F
B17: GpH7-B3 variant S324_02A/GpL16-k0 (antibody, human IgG1, kappa)
heavy: not shown
light: B1 light
notes: both H chains altered; also called Ho Ab S324_02A
B18: GpH7-B3 variant T335_15Y/GpL16-k0 (antibody, human IgG1, kappa)
heavy: not shown
light: B1 light
notes: both H chains altered; also called Ho Ab T335_15Y
B19: GpH7-B3 variant K334_01G/GpL16-k0 (antibody, human IgG1, kappa)
heavy: not shown
light: B1 light
notes: both H chains altered; also called Ho Ab K334_01G
B20: GpH7-B3 variant T335_07I/GpL16-k0 (antibody, human IgG1, kappa)
heavy: not shown
light: B1 light
notes: both H chains altered; also called Ho Ab T335_07I
B21: GpH7-B3 variant T335_10E/GpL16-k0 (antibody, human IgG1, kappa)
heavy: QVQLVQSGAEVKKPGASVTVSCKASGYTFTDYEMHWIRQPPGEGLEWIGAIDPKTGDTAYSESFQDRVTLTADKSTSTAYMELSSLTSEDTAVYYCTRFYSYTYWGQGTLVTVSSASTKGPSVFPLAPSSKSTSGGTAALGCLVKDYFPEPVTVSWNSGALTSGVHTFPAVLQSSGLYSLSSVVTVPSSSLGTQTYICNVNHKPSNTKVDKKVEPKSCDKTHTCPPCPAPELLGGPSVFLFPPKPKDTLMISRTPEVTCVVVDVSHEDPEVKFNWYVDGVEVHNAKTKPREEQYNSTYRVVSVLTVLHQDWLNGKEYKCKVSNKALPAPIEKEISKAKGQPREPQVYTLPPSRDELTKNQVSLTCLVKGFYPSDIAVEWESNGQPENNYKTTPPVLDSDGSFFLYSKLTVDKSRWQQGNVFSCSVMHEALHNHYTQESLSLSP
light: B1 light
notes: both H chains altered; also called Ho Ab T335_10E
B22: GpH7-B3 variant T335_19Q/GpL16-k0 (antibody, human IgG1, kappa)
heavy: not shown
light: B1 light
notes: both H chains altered; also called Ho Ab T335_19Q
B23: GpH7-B3 variant L234_20W/GpL16-k0 (antibody, human IgG1, kappa)
heavy: not shown
light: B1 light
notes: both H chains altered; also called Ho Ab L234_20W
B24: GpH7-B3 variant H268_02A/GpL16-k0 (antibody, human IgG1, kappa)
heavy: not shown
light: B1 light
notes: both H chains altered; also called Ho Ab H268_02A
B25: GpH7-B3 variant I336_18N/GpL16-k0 (antibody, human IgG1, kappa)
heavy: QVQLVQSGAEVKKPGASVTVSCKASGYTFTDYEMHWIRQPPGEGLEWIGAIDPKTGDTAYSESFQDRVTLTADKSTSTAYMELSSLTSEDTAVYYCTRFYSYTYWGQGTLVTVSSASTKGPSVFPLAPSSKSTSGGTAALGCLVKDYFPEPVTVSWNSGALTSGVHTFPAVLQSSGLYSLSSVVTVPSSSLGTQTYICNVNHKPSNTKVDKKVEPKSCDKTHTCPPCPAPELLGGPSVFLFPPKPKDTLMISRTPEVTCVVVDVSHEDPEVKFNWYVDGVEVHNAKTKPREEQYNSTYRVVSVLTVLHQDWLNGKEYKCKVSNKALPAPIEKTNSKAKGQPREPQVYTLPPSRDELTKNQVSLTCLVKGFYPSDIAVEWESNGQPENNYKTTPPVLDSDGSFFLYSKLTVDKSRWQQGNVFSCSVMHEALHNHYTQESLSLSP
light: B1 light
notes: both H chains altered; also called Ho Ab I336_18N
B26: GpH7-B3 variant S337_20W/GpL16-k0 (antibody, human IgG1, kappa)
heavy: not shown
light: B1 light
notes: both H chains altered; also called Ho Ab S337_20W
B27: GpH7-B3 variant S324_16H/GpL16-k0 (antibody, human IgG1, kappa)
heavy: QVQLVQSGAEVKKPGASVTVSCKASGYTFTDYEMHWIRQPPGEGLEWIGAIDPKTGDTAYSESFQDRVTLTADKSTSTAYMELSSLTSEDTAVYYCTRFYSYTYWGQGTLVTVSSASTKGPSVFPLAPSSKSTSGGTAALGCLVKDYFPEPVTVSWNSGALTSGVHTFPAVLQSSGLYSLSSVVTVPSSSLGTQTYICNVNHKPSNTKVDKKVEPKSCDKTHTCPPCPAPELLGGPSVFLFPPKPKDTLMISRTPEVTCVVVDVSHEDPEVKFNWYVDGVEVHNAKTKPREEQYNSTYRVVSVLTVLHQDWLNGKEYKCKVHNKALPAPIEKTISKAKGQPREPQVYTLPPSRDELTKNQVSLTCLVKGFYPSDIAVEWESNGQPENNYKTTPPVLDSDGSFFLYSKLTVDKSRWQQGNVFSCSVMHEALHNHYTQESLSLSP
light: B1 light
notes: both H chains altered; also called Ho Ab S324_16H
B28: GpH7-B3 variant S267_02A/GpL16-k0 (antibody, human IgG1, kappa)
heavy: not shown
light: B1 light
notes: both H chains altered; also called Ho Ab S267_02A
B29: GpH7-B3 variant T335_13S/GpL16-k0 (antibody, human IgG1, kappa)
heavy: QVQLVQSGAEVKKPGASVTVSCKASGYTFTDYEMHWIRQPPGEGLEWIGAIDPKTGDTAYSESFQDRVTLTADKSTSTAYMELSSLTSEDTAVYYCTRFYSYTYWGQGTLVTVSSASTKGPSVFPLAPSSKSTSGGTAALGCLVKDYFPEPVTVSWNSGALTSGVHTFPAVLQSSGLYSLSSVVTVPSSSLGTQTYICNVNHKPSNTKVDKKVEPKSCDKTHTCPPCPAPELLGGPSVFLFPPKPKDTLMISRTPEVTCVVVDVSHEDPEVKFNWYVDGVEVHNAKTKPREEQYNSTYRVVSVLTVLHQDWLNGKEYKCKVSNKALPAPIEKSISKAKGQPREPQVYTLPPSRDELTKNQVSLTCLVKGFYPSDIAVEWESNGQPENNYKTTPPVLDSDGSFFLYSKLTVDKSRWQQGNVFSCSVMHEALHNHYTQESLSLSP
light: B1 light
notes: both H chains altered; also called Ho Ab T335_13S
B30: GpH7-B3 variant P238_10E/GpL16-k0 (antibody, human IgG1, kappa)
heavy: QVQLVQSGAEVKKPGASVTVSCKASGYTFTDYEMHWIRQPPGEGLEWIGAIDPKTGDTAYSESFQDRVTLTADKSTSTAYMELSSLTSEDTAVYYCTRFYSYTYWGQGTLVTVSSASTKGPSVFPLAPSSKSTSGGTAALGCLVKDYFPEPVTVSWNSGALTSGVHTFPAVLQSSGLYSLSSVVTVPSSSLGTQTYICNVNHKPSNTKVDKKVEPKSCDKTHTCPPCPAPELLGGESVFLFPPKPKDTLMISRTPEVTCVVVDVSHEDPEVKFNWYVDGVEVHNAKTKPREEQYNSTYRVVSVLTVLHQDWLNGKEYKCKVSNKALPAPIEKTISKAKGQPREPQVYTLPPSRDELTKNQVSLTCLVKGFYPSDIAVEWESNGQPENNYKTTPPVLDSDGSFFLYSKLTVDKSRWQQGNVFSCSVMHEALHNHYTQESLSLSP
light: B1 light
notes: both H chains altered; also called Ho Ab P238_10E
B31: GpH7-B3 variant S298_14T/GpL16-k0 (antibody, human IgG1, kappa)
heavy: not shown
light: B1 light
notes: both H chains altered; also called Ho Ab S298_14T
B32: GpH7-B3 variant K326_07I/GpL16-k0 (antibody, human IgG1, kappa)
heavy: not shown
light: B1 light
notes: both H chains altered; also called Ho Ab K326_07I
B33: GpH7-B3 variant S337_15Y/GpL16-k0 (antibody, human IgG1, kappa)
heavy: not shown
light: B1 light
notes: both H chains altered; also called Ho Ab S337_15Y
B34: GpH7-B3 variant P238_09D/GpL16-k0 (antibody, human IgG1, kappa)
heavy: not shown
light: B1 light
notes: both H chains altered; also called Ho Ab P238_09D
B35: GpH7-B3 variant K334_09D/GpL16-k0 (antibody, human IgG1, kappa)
heavy: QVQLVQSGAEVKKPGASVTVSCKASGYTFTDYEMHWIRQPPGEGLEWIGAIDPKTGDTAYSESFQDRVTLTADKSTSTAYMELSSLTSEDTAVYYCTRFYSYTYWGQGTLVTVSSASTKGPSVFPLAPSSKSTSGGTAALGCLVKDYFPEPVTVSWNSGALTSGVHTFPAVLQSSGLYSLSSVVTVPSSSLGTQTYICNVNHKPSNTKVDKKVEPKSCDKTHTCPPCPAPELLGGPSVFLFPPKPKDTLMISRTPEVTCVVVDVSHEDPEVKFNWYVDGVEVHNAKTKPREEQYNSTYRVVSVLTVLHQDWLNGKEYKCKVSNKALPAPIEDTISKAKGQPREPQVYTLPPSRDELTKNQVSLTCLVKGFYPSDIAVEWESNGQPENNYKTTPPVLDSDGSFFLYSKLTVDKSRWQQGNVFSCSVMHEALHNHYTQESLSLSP
light: B1 light
notes: both H chains altered; also called Ho Ab K334_09D
B36: GpH7-B3 variant I336_02A/GpL16-k0 (antibody, human IgG1, kappa)
heavy: not shown
light: B1 light
notes: both H chains altered; also called Ho Ab I336_02A
B37: GpH7-B3 variant T335_20W/GpL16-k0 (antibody, human IgG1, kappa)
heavy: not shown
light: B1 light
notes: both H chains altered; also called Ho Ab T335_20W
B38: GpH7-B3 variant K326_08L/GpL16-k0 (antibody, human IgG1, kappa)
heavy: not shown
light: B1 light
notes: both H chains altered; also called Ho Ab K326_08L
B39: GpH7-B3 variant V266_08L/GpL16-k0 (antibody, human IgG1, kappa)
heavy: not shown
light: B1 light
notes: both H chains altered; also called Ho Ab V266_08L
B40: GpH7-A5/GpH7-B3 variant A330_05P/GpL16-k0 (antibody, human IgG1, kappa)
heavy 1: not shown
heavy 2: not shown
light: B1 light
notes: one H chain altered; also called He Ab A330_05P
B41: GpH7-A5/GpH7-B3 variant S337_14T/GpL16-k0 (antibody, human IgG1, kappa)
heavy 1: not shown
heavy 2: not shown
light: B1 light
notes: one H chain altered; also called He Ab S337_14T
B42: GpH7-A5/GpH7-B3 variant I332_06M/GpL16-k0 (antibody, human IgG1, kappa)
heavy 1: not shown
heavy 2: not shown
light: B1 light
notes: one H chain altered; also called He Ab I332_06M
B43: GpH7-A5/GpH7-B3 variant L234_20W/GpL16-k0 (antibody, human IgG1, kappa)
heavy 1: not shown
heavy 2: not shown
light: B1 light
notes: one H chain altered; also called He Ab L234_20W
B44: GpH7-A5/GpH7-B3 variant S324_02A/GpL16-k0 (antibody, human IgG1, kappa)
heavy 1: not shown
heavy 2: not shown
light: B1 light
notes: one H chain altered; also called He Ab S324_02A
B45: GpH7-A5/GpH7-B3 variant P238_09D/GpL16-k0 (antibody, human IgG1, kappa)
heavy 1: not shown
heavy 2: not shown
light: B1 light
notes: one H chain altered; also called He Ab P238_09D
B46: GpH7-A5/GpH7-B3 variant I336_08L/GpL16-k0 (antibody, human IgG1, kappa)
heavy 1: not shown
heavy 2: not shown
light: B1 light
notes: one H chain altered; also called He Ab I336_08L
B47: GpH7-A5/GpH7-B3 variant L234_09D/GpL16-k0 (antibody, human IgG1, kappa)
heavy 1: not shown
heavy 2: not shown
light: B1 light
notes: one H chain altered; also called He Ab L234_09D
B48: GpH7-A5/GpH7-B3 variant P238_10E/GpL16-k0 (antibody, human IgG1, kappa)
heavy 1: not shown
heavy 2: not shown
light: B1 light
notes: one H chain altered; also called He Ab P238_10E
B49: GpH7-A5/GpH7-B3 variant P271_01G/GpL16-k0 (antibody, human IgG1, kappa)
heavy 1: not shown
heavy 2: not shown
light: B1 light
notes: one H chain altered; also called He Ab P271_01G
B50: GpH7-A5/GpH7-B3 variant H268_18N/GpL16-k0 (antibody, human IgG1, kappa)
heavy 1: not shown
heavy 2: not shown
light: B1 light
notes: one H chain altered; also called He Ab H268_18N
B51: GpH7-A5/GpH7-B3 variant A330_07I/GpL16-k0 (antibody, human IgG1, kappa)
heavy 1: not shown
heavy 2: not shown
light: B1 light
notes: one H chain altered; also called He Ab A330_07I
B52: GpH7-A5/GpH7-B3 variant S337_04F/GpL16-k0 (antibody, human IgG1, kappa)
heavy 1: not shown
heavy 2: not shown
light: B1 light
notes: one H chain altered; also called He Ab S337_04F
B53: GpH7-A5/GpH7-B3 variant E333_13S/GpL16-k0 (antibody, human IgG1, kappa)
heavy 1: not shown
heavy 2: not shown
light: B1 light
notes: one H chain altered; also called He Ab E333_13S
B54: GpH7-A5/GpH7-B3 variant G236_15Y/GpL16-k0 (antibody, human IgG1, kappa)
heavy 1: not shown
heavy 2: not shown
light: B1 light
notes: one H chain altered; also called He Ab G236_15Y
B55: GpH7-A5/GpH7-B3 variant E333_02A/GpL16-k0 (antibody, human IgG1, kappa)
heavy 1: not shown
heavy 2: not shown
light: B1 light
notes: one H chain altered; also called He Ab E333_02A
B56: GpH7-A5/GpH7-B3 variant E333_20W/GpL16-k0 (antibody, human IgG1, kappa)
heavy 1: not shown
heavy 2: not shown
light: B1 light
notes: one H chain altered; also called He Ab E333_20W
B57: GpH7-A5/GpH7-B3 variant E333_04F/GpL16-k0 (antibody, human IgG1, kappa)
heavy 1: not shown
heavy 2: not shown
light: B1 light
notes: one H chain altered; also called He Ab E333_04F
B58: GpH7-A5/GpH7-B3 variant E333_03V/GpL16-k0 (antibody, human IgG1, kappa)
heavy 1: not shown
heavy 2: not shown
light: B1 light
notes: one H chain altered; also called He Ab E333_03V
B59: GpH7-A5/GpH7-B3 variant L234_04F/GpL16-k0 (antibody, human IgG1, kappa)
heavy 1: not shown
heavy 2: not shown
light: B1 light
notes: one H chain altered; also called He Ab L234_04F
B60: GpH7-A5/GpH7-B3 variant L234_07I/GpL16-k0 (antibody, human IgG1, kappa)
heavy 1: not shown
heavy 2: not shown
light: B1 light
notes: one H chain altered; also called He Ab L234_07I

target: T1, FcγRIIIa extracellular domain with C-terminal His tag (human, UniProt P08637 17-208); assay: SPR (Biacore), both H chains altered; HoCon Ab GpH7-B3/GpL16-k0 = 100
T1 sequence (P08637 17-208): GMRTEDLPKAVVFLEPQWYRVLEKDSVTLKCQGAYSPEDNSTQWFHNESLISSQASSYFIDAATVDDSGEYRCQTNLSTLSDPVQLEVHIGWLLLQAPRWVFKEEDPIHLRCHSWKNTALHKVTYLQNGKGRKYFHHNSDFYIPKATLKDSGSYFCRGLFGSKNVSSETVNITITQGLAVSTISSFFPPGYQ

Ho/Con_3a [%]	Binder
108	B1
107	B2
100	B3
100	B4
109	B5
88	B6
64.7	B7
102	B8
160	B9
97.2	B10
106	B11
110	B12
52.8	B13
104	B14
99.5	B15
95.6	B16
99.8	B17
91.5	B18
104	B19
107	B20

Ho/Con_3a [%]	Binder
102	B21
97.7	B22
37.1	B23
118	B24
101	B25
87.8	B26
103	B27
145	B28
97.6	B29
0.8	B30
107	B31
134	B32
99	B33
-0.1	B34
150	B35
104	B36
91.8	B37
114	B38
90.5	B39

target: T1, FcγRIIIa extracellular domain with …; assay: SPR (Biacore), one H chain altered; HeCon Ab GpH7-A5/GpH7-B3/GpL16-k0 = 100

He/Con_3a [%]	Binder
155	B40
101	B41
101	B42
107	B43
104	B44
106	B45
106	B46
117	B47
105	B48
113	B49
104	B50
103	B51
101	B52
103	B53
121	B54
105	B55
101	B56
101	B57
103	B58
118	B59
103	B60
